In PMC6476931, “The Complex Fibrinogen Interactions of the Staphylococcus aureus Coagulases” (Frontiers in Cellular and Infection Microbiology, 2019) one finds Kd data, which are given here for three molecules.

What all share (conditions): both partners purified
One assay concerns the target Human fibrinogen (human, UniProt P02671 36-866; P02675 45-491; P02679 27-453). The experiment in a line: ELISA; Fg coated on wells (5 μg/ml, 0.5 μg/well); GST-vWbp or GST-Coa proteins in 1% BSA, 0.05% Tween 20, TBS, 1 h at room temperature; detected with HRP anti-GST; one-site fit, apparent KD, mean of three experiments. In general terms: ELISA stands for enzyme-linked immunosorbent assay.

Assay [1] has as its target T1, GST-vWbp (full-length von Willebrand factor binding protein) (S. aureus strain Newman).
T1 construct: Cloned in pGEX-5x-1; also called full-length vWbp; source: E. coli BL21 (DE3)-derivative Acella, purified (glutathione-Sepharose 4B, gel permeation); not shown: GST, N-terminal, kept
Description: ELISA; GST-vWbp or GST-Coa coated on wells (5 μg/ml, 0.5 μg/well); soluble Fg in 1% BSA, 0.05% Tween 20, TBS; detected with HRP anti-human Fg; one-site fit, apparent KD, mean of three experiments.

For assay [2], the target named is T2, GST-Coa (full-length Coagulase) (S. aureus strain Newman).
T2 construct: Coagulase (Coa), S. aureus strain Newman, coa gene amplified from chromosomal DNA; cloning described in Ko et al., 2016; the recombinant protein probably lacks it; also called intact Coa; source: E. coli BL21 (DE3)-derivative Acella, purified (glutathione-Sepharose 4B, gel permeation); not shown: GST, N-terminal, kept
The assay is described as above.

Assay [3] concerns the target T1, GST-vWbp (full-length von Willebrand …). The experiment in a line: ELISA; Fg coated on wells (5 μg/ml, 0.5 μg/well); GST-vWbp or GST-Coa proteins in 1% BSA, 0.05% Tween 20, TBS, 1 h at room temperature; detected with HRP anti-GST; one-site fit, apparent KD, mean of three experiments.
In assay [4] the target is T2, GST-Coa (full-length Coagulase). Described as above.

Human fibrinogen, sequence (P02671 36-866, one chain of several): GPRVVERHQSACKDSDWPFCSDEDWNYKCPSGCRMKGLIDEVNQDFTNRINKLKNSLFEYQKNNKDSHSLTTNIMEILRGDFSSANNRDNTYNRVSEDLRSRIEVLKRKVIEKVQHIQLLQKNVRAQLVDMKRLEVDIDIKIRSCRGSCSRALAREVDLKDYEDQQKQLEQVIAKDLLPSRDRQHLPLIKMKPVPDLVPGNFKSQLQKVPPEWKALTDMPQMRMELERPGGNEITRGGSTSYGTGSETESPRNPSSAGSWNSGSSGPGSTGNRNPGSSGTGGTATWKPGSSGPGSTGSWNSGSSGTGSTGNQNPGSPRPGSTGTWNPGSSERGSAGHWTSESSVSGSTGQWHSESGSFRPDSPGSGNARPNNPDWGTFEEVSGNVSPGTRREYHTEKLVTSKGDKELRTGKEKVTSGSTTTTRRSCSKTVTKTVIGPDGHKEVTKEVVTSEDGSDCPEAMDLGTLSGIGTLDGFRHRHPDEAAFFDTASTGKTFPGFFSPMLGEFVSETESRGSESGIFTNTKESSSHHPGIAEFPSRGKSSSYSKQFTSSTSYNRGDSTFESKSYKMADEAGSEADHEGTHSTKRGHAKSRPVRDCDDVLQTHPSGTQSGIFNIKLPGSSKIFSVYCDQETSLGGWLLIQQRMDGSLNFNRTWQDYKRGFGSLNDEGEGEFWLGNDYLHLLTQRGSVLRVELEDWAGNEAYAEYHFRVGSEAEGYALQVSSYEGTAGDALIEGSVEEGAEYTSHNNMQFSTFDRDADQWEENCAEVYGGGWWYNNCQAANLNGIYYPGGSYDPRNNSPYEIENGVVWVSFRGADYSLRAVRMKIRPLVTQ

B1: GST-Coa-C (C-terminal half of Coa) (domain or fragment)
chain: ETETKSPVVKEEKKVEEPQAPKVDNQQEVKTTAGKAEETTQPVAQPLVKIPQGTITGEIVKGPEYPTMENKTVQGEIVQGPDFLTMEQSGPSLSNNYTNPPLTNPILEGLEGSSSKLEIKPQGTESTLKGTQGESSDIEVKPQATETTEASQYGPRPQFNKTPKYVKYRDAGTGIREYNDGTFGYEARPRFNKPSETNAYNVTTHANGQVSYGARPTYKKPSETNAYNVTTHANGQVSYGARPTQNKPSKTNAYNVTTHGNGQVSYGARPTQNKPSKTNAYNVTTHANGQVSYGARPTYKKPSKTNAYNVTTHADGTATYGPRVTK
modifications: plasma-purified hexamer (AαBβγ)2, disulfide-linked, N-glycosylated, fibrinopeptides A and B retained. Predominant plasma forms assumed: 610-residue Aα and 411-residue γA (the P02679 canonical …)
On to B1, for which, in the assay with Human fibrinogen, the Kd was 0.46 nM.

B2: GST-Coa-N (N-terminal half of Coa) (domain or fragment)
chain: IVTKDYSGKSQVNAGSKNGTLIDSRYLNSALYYLEDYIIYAIGLTNKYEYGDNIYKEAKDRLLEKVLREDQYLLERKKSQYEDYKQWYANYKKENPRTDLKMANFHKYNLEELSMKEYNELQDALKRALDDFHREVKDIKDKNSDLKTFNAAEEDKATKEVYDLVSEIDTLVVSYYGDKDYGEHAKELRAKLDLILGDTDNPHKITNERIKKEMIDDLNSIIDDFFMETKQNRPKSITKYNPTTHNYKTNSDNKPNFDKLVEETKKAVKEADDSWKKKTVKKYG
modifications: plasma-purified hexamer (AαBβγ)2, disulfide-linked, N-glycosylated, fibrinopeptides A and B retained. Predominant plasma forms assumed: 610-residue Aα and 411-residue γA (the P02679 canonical …)
B2: the Kd in the assay with Human fibrinogen is 20 nM.

B3: Human fibrinogen (complex)
chain 1: ADSGEGDFLAEGGGVRGPRVVERHQSACKDSDWPFCSDEDWNYKCPSGCRMKGLIDEVNQDFTNRINKLKNSLFEYQKNNKDSHSLTTNIMEILRGDFSSANNRDNTYNRVSEDLRSRIEVLKRKVIEKVQHIQLLQKNVRAQLVDMKRLEVDIDIKIRSCRGSCSRALAREVDLKDYEDQQKQLEQVIAKDLLPSRDRQHLPLIKMKPVPDLVPGNFKSQLQKVPPEWKALTDMPQMRMELERPGGNEITRGGSTSYGTGSETESPRNPSSAGSWNSGSSGPGSTGNRNPGSSGTGGTATWKPGSSGPGSTGSWNSGSSGTGSTGNQNPGSPRPGSTGTWNPGSSERGSAGHWTSESSVSGSTGQWHSESGSFRPDSPGSGNARPNNPDWGTFEEVSGNVSPGTRREYHTEKLVTSKGDKELRTGKEKVTSGSTTTTRRSCSKTVTKTVIGPDGHKEVTKEVVTSEDGSDCPEAMDLGTLSGIGTLDGFRHRHPDEAAFFDTASTGKTFPGFFSPMLGEFVSETESRGSESGIFTNTKESSSHHPGIAEFPSRGKSSSYSKQFTSSTSYNRGDSTFESKSYKMADEAGSEADHEGTHSTKRGHAKSRPV
chain 2: QGVNDNEEGFFSARGHRPLDKKREEAPSLRPAPPPISGGGYRARPAKAAATQKKVERKAPDAGGCLHADPDLGVLCPTGCQLQEALLQQERPIRNSVDELNNNVEAVSQTSSSSFQYMYLLKDLWQKRQKQVKDNENVVNEYSSELEKHQLYIDETVNSNIPTNLRVLRSILENLRSKIQKLESDVSAQMEYCRTPCTVSCNIPVVSGKECEEIIRKGGETSEMYLIQPDSSVKPYRVYCDMNTENGGWTVIQNRQDGSVDFGRKWDPYKQGFGNVATNTDGKNYCGLPGEYWLGNDKISQLTRMGPTELLIEMEDWKGDKVKAHYGGFTVQNEANKYQISVNKYRGTAGNALMDGASQLMGENRTMTIHNGMFFSTYDRDNDGWLTSDPRKQCSKEDGGGWWYNRCHAANPNGRYYWGGQYTWDMAKHGTDDGVVWMNWKGSWYSMRKMSMKIRPFFPQQ
chain 3: YVATRDNCCILDERFGSYCPTTCGIADFLSTYQTKVDKDLQSLEDILHQVENKTSEVKQLIKAIQLTYNPDESSKPNMIDAATLKSRKMLEEIMKYEASILTHDSSIRYLQEIYNSNNQKIVNLKEKVAQLEAQCQEPCKDTVQIHDITGKDCQDIANKGAKQSGLYFIKPLKANQQFLVYCEIDGSGNGWTVFQKRLDGSVDFKKNWIQYKEGFGHLSPTGTTEFWLGNEKIHLISTQSAIPYALRVELEDWNGRTSTADYAMFKVGPEADKYRLTYAYFAGGDAGDAFDGFDFGDDPSDKFFTSHNGMQFSTWDNDNDKFEGNCAEQDGSGWWMNKCHAGHLNGVYYQGGTYSKASTPNGYDNGIIWATWKTRWYSMKKTTMKIIPFNRLTIGEGQQHHLGGAKQAGDV
modifications: plasma-purified hexamer (AαBβγ)2, disulfide-linked, N-glycosylated, fibrinopeptides A and B retained. Predominant plasma forms assumed: 610-residue Aα and 411-residue γA (the P02679 canonical …)
In the case of B3, the Kd was found to be 5.3 nM in assay [1], 0.09 nM in assay [2], 9.9 nM in assay [3] and 2.4 nM in assay [4].
